The values below come from patent US5863775A, “Control of parasites” (The University of Leeds, priority 1994, dated 1999).

The test system of assay [1] is Ascaridia galli cysteine protease. Kind of assay: Inhibition of cysteine protease fraction from Ascaridia galli. The class given is biochemical.
In assay [2] the test system is Ascaripain from Ascaris suum. The experiment in a line: Sensitivity of Ascaripain to protease inhibitors. In kind it is biochemical. An excerpt: Ascaripain from Ascaris suum is similar to Ascaridia cysteine protease. Both prefer hydrolysis of Z-Phe-Arg-aminomethylcoumarin and both have limited action on Z-Phe-Arg-Arg-aminomethylcoumarin and Bz-Arg-aminomethylcoumarin. […] Pepstatin and serine protease inhibitors have no effect.

A further assay relates to Ascaridia galli. Kind of assay: Ascaridia galli worms held in vitro for 4 days with maize inhibitor. Here is the method:
35 day old Ascaridia were removed from the host and thoroughly rinsed with 0.9% (w/v) NaCl in distilled water before transfer to 3 cm plastic Petri-dishes containing basic culture medium: CaCl2 2H2 O (0.24 mg/ml), Na2 HCO, (0.2 mg/ml), NaCl (9.0 mg/ml) and D-glucose. (1 mg/ml). Streptomycin sulphate (100 mg) and penicillin (60 u) were included to reduce microbial contamination.
Three treatments of five replicates containing 4 worms each were used to assess the potency, of the maize inhibitor. Each treatment was carried out in the basal culture medium supplemented with:
(i) 0.5 mg/ml bovine serum albumin (BSA);
(ii) 0.5 mg/ml maize protein recovered by the batch method of which zeacystatin was estimated to be at 22 μg/ml;
(iii) no supplement to the medium.
The worms were kept for 4 days in the dark at 37° C. and solutions changed daily. Zeacystatin concentration was estimated using a papain inhibition assay as previously and by comparison of the inhibition derived from the batch method with that achieved for the zeacystatin obtained by affinity chromatography earlier.

In a further assay the test system is Caenorhabditis elegans. Kind of assay: C. elegans feeding trials on cystatin-supplemented medium. To be noted: for larvae that achieved normal development to adulthood: hatched and left to develop on supplemented media; for larvae that completed development: hatched on supplemented media, then transferred to normal media; for mean eggs laid per hermaphrodite: hermaphrodites on supplemented plates, 2.5 mg 1^-1, ten replicates. In kind it is in vivo. Here is the method: Caenorhabditis elegans was cultured on NGM agar carrying a lawn of OP50 E. coli as described by Wood (1988). Populations were maintained for 5 days after which time an agar plug from the colony plate was inserted onto fresh media. When required, the Oc-I (see Example 6) or BSA was added to the cooled medium to a final concentration of 2.5 mg 1^-1 just before polymerisation. Single nematodes were transferred from non-supplemented solid agar plates to plates containing Oc-I or BSA.
Feeding trials were set-up using C. elegans to examine the effect of Oc-I on nematode survival and growth. As soon as hermaphrodites became apparent on normal agar they were transferred to individual plates containing either Oc-I or BSA and egg laying was observed. Ten replicates were carried out for each condition.
Subsequently the larvae hatched under normal conditions were removed to media supplemented with either Oc-I or BSA. 50 larvae were removed at 6 h, 12 h, 24 h and 30 h (corresponding to the four larval stages L1, L2, L3 and L4 respectively).
Larvae of C. elegans were transferred to agar plates with E. coli in which the medium was supplemented with 0-10 mg/L of Oc-I and the subsequent mortality of the animals during feeding was estimated from activity of the animals.

In assay [3] the test system is RH strain Toxoplasma gondii in MDBK cells. The experiment in a line: Toxoplasma gondii growth in MDBK cell culture. The class given is cell-based. To be noted: 24 hours. Here is the method:
Tachyzoites of T. gondii were produced by intraperitoneal passage in Tuck's Number 1 outbred mice, approximately 10^7 parasites are injected intra-peritoneally and parasites for culture were harvested three days later by peritoneal lavage with F12 medium and used immediately.
MDBK cells were plated onto 13 mm cover-slip cultures at a density of 1×10^5 per cover slip and incubated overnight in HAM's F12 medium (GIBCO) plus 10% foetal calf serum at 37° C. Tachyzoites of RH strain Toxoplasma gondii (2×10^6) were loaded onto each cover slip and incubated for 4 hours at 37° C. to allow invasion of the DBK cells. Cultures were then washed with F12 medium to remove extracellular parasites and the inhibitor was added at a concentration of 0, 30 or 120 μg/ml. The cultures were incubated for a further 24 hours at 37° C. and then removed, washed with PBS, fixed with Bouin's solution and stained with Geimsa. Parasite growth was assessed by scoring approximately 200 cells for the number of infected cells and the total number of parasites in the sample.

[4] abbreviates: 30 h on normal media (L4) before transfer to supplemented media.

Where a SMILES comes first, the peptide text is derived from it. [ ]: non-standard residue; d: D form. The star is where a group is joined. Sta = CC(C)C[C@H](N)[C@@H](O)CC(=O)O; Isovaleryl = CC(C)CC(=O)*

Regarding `CC(C)C[C@H](NC(=O)[C@H]1O[C@@H]1C(=O)O)C(=O)NCCCCN=C(N)N` [E64], in assay [1], the “sensitivity of Ascaridia cysteine protease to inhibitor” value is “highly sensitive”. Further, the “inhibition of proteolytic activity of protease from Ascaridia galli” value in assay [1] (10 μM E64, pre-incubated 20 min at 37° C., Z-Phe-Arg-β-napthylamine, FIG. 6) is “over 90%”. For the same molecule, the “sensitivity of Ascaripain from Ascaris suum to inhibitor” value in assay [2] is “highly sensitive”.

For `CC(C)CC(=O)N[C@H](C(=O)N[C@H](C(=O)N[C@@H](CC(C)C)[C@@H](O)CC(=O)N[C@@H](C)C(=O)N[C@@H](CC(C)C)[C@@H](O)CC(=O)O)C(C)C)C(C)C` [Pepstatin] (Isovaleryl-VV[Sta]A[Sta]-OH), the “sensitivity of Ascaridia cysteine protease to inhibitor” value in assay [1] is given as “no effect”. Besides, the “sensitivity of Ascaripain from Ascaris suum to inhibitor” value in assay [2] is reported as “no effect”.

For “bovine serum albumin [BSA, reference compound]”, the “Activity Score of A. galli” value in the assay with Ascaridia galli (0.5 mg/ml supplement in basic medium (maize protein: zeacystatin estimated 22 μg/ml), 4 days, dark, 37° C., scale 0 (dead) to 3 (frequently active)) was 2.75 ± 0.35. In addition, in the assay on Ascaridia galli (0.5 mg/ml supplement, 4 days at 37° C.), the “state of worms in culture” value is recorded as “remained active for 4 days”. In the assay on Caenorhabditis elegans, the “larvae that achieved normal development to adulthood” value is 95%, the “larvae that completed development” value turned out to be 96.0% and the “mean eggs laid per hermaphrodite” value is reported as 300. Also, the “juveniles developing into adult nematodes” value in the assay on Caenorhabditis elegans (hatched from eggs laid on supplemented media, transferred to normal media) is listed as “All”.

B1: Oc-I: oryzacystatin I, rice cystatin cloned from Oryza sativa L. japonica, expressed in E. coli with six N-terminal histidine residues (protein, UniProt P09229 27-140, looked up)
Cysteine proteinase inhibitor …: EAHRAGGEGEEKMSSDGGPVLGGVEPVGNENDLHLVDLARFAVTEHNKKANSLLEFEKLVSVKQQVVAGTLYYFTIEVKEGDAKKLYEAKVWEKPWMDFKELQEFKPVDASANA
modifications: N-terminal His6 tag
notes: oryzacystatin I, rice cystatin cloned from Oryza sativa L. japonica, expressed in E. coli with six N-terminal histidine residues
As to B1, the number parasites/cell in assay [3] (30 μg/ml) turned out to be 6.3 ± 0.63; in assay [3] (120 μg/ml, P<0.05, listed as Inhibitor), 4.2 ± 0.17; in assay [3] (120 μg/ml, P<0.05, listed as inhibitor), 4.2±0.17. In addition, the “% cells infected” value in assay [3] (30 μg/ml, listed as Inhibitor) came out at 66 ± 2%; in assay [3] (30 μg/ml, listed as inhibitor) it was 66±2%; in assay [3] (120 μg/ml, listed as Inhibitor) it was 59 ± 0.6%; in assay [3] (120 μg/ml, listed as inhibitor), 59±0.6%. For the same molecule, the “larvae that did not reach the adult stages” value in the assay with Caenorhabditis elegans (setting [4]) was 24%. Also, in the assay on Caenorhabditis elegans (setting [4]), the “larvae that reached adult male or hermaphrodite stages” value worked out at 76%. Also, the eggs hatched result with Caenorhabditis elegans (cystatin present in the medium) is listed as “Greater than 95%”. In the assay on Caenorhabditis elegans, the “larvae that achieved normal development to adulthood” value was “less than 2%”. In the assay on Caenorhabditis elegans, the “larvae that completed development” value was 97.0%. Moreover, in the assay on Caenorhabditis elegans, the “mean eggs laid per hermaphrodite” value amounted to 300. Moreover, the “recovery of larvae after transfer to fresh unsupplemented media” value in the assay on Caenorhabditis elegans (larvae which failed to develop on Oc-I plates) is “failed to respond to the fresh food source and showed no signs of further development”. Also, the “LD50 for mortality of C. elegans larvae” value in the assay on Caenorhabditis elegans (medium supplemented with 0-10 mg/L, probit analysis, FIG. 10) is given as “approximately 7 mg OcI per liter of medium”. Besides, in the assay on Caenorhabditis elegans (transferred 6, 12 or 24 h after hatching (L1, L2, L3) to supplemented media), the “larvae developing further to the mature adult stages” value is on record as “none”.

B2: egg white cystatin: protease inhibitor of cysteine proteases (a cystatin) in chick egg white (protein, UniProt P01038 24-139, looked up)
Cystatin: SEDRSRLLGAPVPVDENDEGLQRALQFAMAEYNRASNDKYSSRVVRVISAKRQLVSGIKYILQVEIGRTTCPKSSGDLQSCEFHDEPEMAKYTTCTFVVYSIPWLNQIKLLESKCQ
Take B2: the “sensitivity of Ascaridia cysteine protease to inhibitor” value in assay [1] is on record as “highly sensitive”. For the same molecule, the “sensitivity of Ascaripain from Ascaris suum to inhibitor” value in assay [2] was “highly sensitive”.
